B1: CYP82D (SEQ ID NO: 40) Panax ginseng (protein)
chain: METFLAQLYSTTTIAALFVLLVLYYFSPWTRINKKNVAPEAGGGWPIIGHLHLLGGSKLPHLVFGSMADKYGPIFTVRLGVQRSLVVSSWEMVKDIFTTNDVIVSGRPKFLAAKHLSYNYAMFGFSPYGSFWLELRKITSLQLLSNRRLELLKHVRVSEMEISMRQLYKLWSEKKNGSGRVLMDMKKWFGELNLNVTFRMVAGKRYFGGGAASNDEEARRCRRVVREFFRLLGVVVVADSLPFLRWLDLGGYERAMKETAREMDSIVSVWLEEHRIKSDSSGDDANMEQDFMDVMLSAVKNVDLCGFDAHTVIKATCMVIISSGTDTTTVELTWALCLLLNNRHVLKKAQEELDNVVGKQRRVKESDLNNLIYLQAIVKETLRLYPAGQLGGQREFSDDCTVGGYHVPKRTRLVVNLWKLHRDPRIWSDPTEFRPERFLERHKEIDVKGQHFELIPFGAGRRVCPGITFGLQMFHLVLASLLHGFDISTPSDAPVDMAEGAGLTNAKITPLEILIAPRLSPSLYE
modifications: Panax ginseng
B2: UGT Cicer arietinum: Glycosyltransferase (UGT) from Cicer arietinum (protein, listed as Cicer arietinum)
chain: MKKIEVVFIPSPGVGHLISTLEFANLLINRNNRLNITVLVINFPKTVEKQTNYSLTESENLHVINLPQTTTHVPSTSDVGNSISALVETQKSNVKQAVSNLTGTLAAFVVDMFCTTMIDVANELGVPSLVFFTSGVAFLGLMLHLHTIWEQQDTELLLQQDELDIPSFANPVATNTLPTLVLRKEWESSFIKYGNGLKKASGIIVNSFHELEPHAVRSFLEDPTLRDLPIYPVGPILNPKSNVDSDDVIKWLDDQPPSSVVFLCFGSMGTFDEEQVREIALAIERSGVRFLWSLRKPQPQGTMVPPSDYTLSQMLEVLPEGFLDRTANIGRVIGWAPQVQVLAHQATGGFVSHCGWNSTLESIYYGVPIATWPLFAEQQTNAFELVRELKIAVEIALDYRLEFDIGRNYLLDADKIERGIRGVLDKDGEVRKKVKEMSQKSRNVLLEGGSSYTYLGQLIDYITNQV
B3: HCTC3H Coffea canephora: hydroxycinnamoyl-CoA:quinate hydroxycinnamoyltransferase p-coumaroyl quinate 3′-hydroxylase fusion (HCTC3H), Coffea canephora (protein, listed as Coffea canephora)
chain: MKIEVKESTMVRPAQETPGRNLWNSNVDLVVPNFHTPSVYFYRPTGSSNFFDAKVLKDALSRALVPFYPMAGRLKRDEDGRIEIECNGEGVLFVEAESDGVVDDFGDFAPTLELRRLIPAVDYSQGISSYALLVLQVTYFKCGGVSLGVGMRHHAADGFSGLHFINSWSDMARGLDVTLPPFIDRTLLRARDPPQPQFQHIEYQPPPALKVSPQTAKSDSVPETAVSIFKLTREQISALKAKSKEDGNTISYSSYEMLAGHVWRCACKARGLEVDQGTKLYIATDGRARLRPSLPPGYFGNVIFTATPIAIAGDLEFKPVWYAASKIHDALARMDNDYLRSALDYLELQPDLKALVRGAHTFKCPNLGITSWVRLPIHDADFGWGRPIFMGPGGIAYEGLSFILPSPTNDGSMSVAISLQGEHMKLFQSFLYDIGGGGSGGGGSGGGGSMALLLILLPVAFIFLAYSLYERLRFKLPPGPRPKPVVGNIYDIKPVRFKCYAEWSKLYGPIFSVYFGSQLNTVVNTAELAKEVLKDNDQQLADRYRSRPSARMSRNGQDLIWADYGPHYVKVRKLCNLELFTPKRLEGLRPLREDEVTAMVDSIFKDCTKPENKGKSLLMRNYLGSVAFNNITRLTFGKRFMNSEGVVDEQGQEFKGIVSNGIRIGAKLSVADHIPWLRWMFVGENEDLDKHNARRDKLTRMIMEEHTLARQKSGNTKQHFVDALLTLQKQYELSDDTVIGLLWDMITAGMDTTTISVEWAMAELVKNPRVQQKAQEELDRVIGSDRIMTEADFAKLPYLQCVAKEALRLHPPTPLMLPHRANANVKIGGYDIPKGSIVHVNVWAIARDPAAWKNPLEFRPERFLEEDVDIKGHDYRLLPFGAGRRICPGAQLALNLVTSMLGHLLHHFTWSPPPGVRPEEIDLEESPGTVTYMRTPLQAVATPRLPAHLYNRVPVE
B4: PAL Ganoderma sinense: Phenylalanine ammonia-lyase (PAL) from Ganoderma sinense (protein)
chain: MPGYTLTKTQSTSTFEPSPVTLKKAAVSSPLHAEPELPKQSSAPTLLHKFVEAHRALNNYKQGQPIVVDGQTLSIPAVAAVARYNADVVLDDSSDIQTRVLKSRQVIVDKVSSQKSVYGVSTGFGGSADTRTSDPLTLGLALFQHQHCGVLPSDTDSVPVALPLLDPLTSTSMPESWVRGAILIRMNSLIRGHSGVRWELIERMSALLRENIVPLVPLRGSISASGDLSPLSYIAGLLIGNPSIRVFDGPSTFRGRRIVSSREALSAHHIEPISLGSKEHLGILNGTAFSASVGALAVHEAVHLSLLGQVCTAMCTEAMLGAKGSFAPFIHSVARPHPGQVEVAETVTDLLEGSHFAVTAEEEKHISADIGELRQDRYPLRTSAQFLGPQVEDVLSAFAAITIECNSTTDNPLIDGETGEVHHGGNFQAMSVTNAMEKTRLAMHHIGKLLFAQCTELLNPSMNRGLPPNLAATDPSHNYFAKGVDIHAAAYVGELGYLANPVSTHVQSAEMHNQAVNSLALISARATLNSLEVLSILTSSFLYVLCQALDLRAMQHEFELEVDGILRQQLALSFGRHLSAADLDALFSVLSRHVRRSLETTSTMDAALRMRTVAAATTTPFVDFCAKRNTSLDLDEIVAFRAGLSEGMVGSLVRLREEYLRGSKGPAPAAKYLGRSRAVYEFVRVTLGIRMHGSENLHDFKEGPGVEDPTIGQDIALIHEAIRDGKMQDVVVGIFA
modifications: Ganoderma sinense
B5: C4H4CL Azospirillum sp.: Cinnamate 4 hydroxylase 4 coumarate coenzyme ligase fusion (C4H4CL), Azospirillum sp. (protein)
chain: MDLLLLEKTLLALFIAATIAITISKLRGKRFKLPPGPIPVPVFGNWLQVGDDLNHRNLTDLAKRFGDIFLLRMGQRNLVVVSSPELAKEVLHTQGVEFGSRTRNVVFDIFTGKGQDMVFTVYGTLAEMRRIMTVPFFTNKVVQQYRFGWEFEAQSVVDDVKKNPEACSSGIVLRRRLQLMMYNIMYRIMFDRRFESEEDPLFVKLKALNGERSRLAQSFEYNYGDFIPILRPFLKGYLKLCKEVKDRRLQLFKDYFVDERKKLGSTKSTTNEGLKCAIDHILDAQQKGEINDDNVLYIVENINVAAIETTLWSIEWGIAELVNHQKIQNKVREEIDRVLGPGHQVTEPDLQKLPYLQAVIKETLRLRMAIPLLVPHMNLHDAKLSGFDIPAESKILVNAWWLANNPAQWKKPEEFRPERFLEEESHVEANGNDFRYLPFGVGRRSCPGIILALPILGITLGRLVQNFELLPPPGQSKIDTAEKGGQFSLHILKHSTIVCKPRSFNGGGGSGGGGSGGGGSMTIQRWWRNRESLNRVLCDLLAGEFARLRPGGSPPAHPHRWPETLPLGPDGVGADSLDLLQLAAALNEALHLHRSGIEDYLLMHRTVGDWLDVCEAALGRFDGALSFRTSGSTGEGKRCEHPLAALEEEADALAALLSGGAEAPRRVVSVVPAHHIYGFLFTVLLPDRLAVPVVDGRGTSPGGLAARLGPGDLVVAHPDWWGALLRSGAALPDGVTGTSSTAPCPPDTARGVRGVGLARLVEVFGSSETAGLGWRESPDAPFRPFPWWRFGDDGRVTRRLADGTVLSATLQDRLSHDEEGFRPSGRLDTVVQVGGVNVSLAGVQAHLAGHPDVEAAAVRLMRPEEGTRLKAFIVPARTAPPREELYRRLTDWIEATLPAPHRPRALAFGPALPVNGMGKPCDWPLATCR
modifications: Depicts the nucleic acid sequence of Cinnamte 4 hydroxylase 4 coumarate coenzyme ligase fusion (C4H4CL) of Azospirillum sp.
B6: Glycosyltransferase (UGT) (SEQ ID NO: 42) Mates domestica (protein, listed as Malus domestica)
chain: MKKVELVFIPSPGAGHHLPTLQFVKRLIDRNDRISITILAIQSYFPTTLSSYTKSIAASEPRIRFIDVPQPQDRPPQEMYKSRAQIFSLYIESHVPSVKKIITNLVSSSANSSDSIRVAALVVDLFCVSMIDVAKELNIPSYLFLTSNAGYLAFMLHLPILHEKNQIAVEESDPDWSIPGIVHPVPPRVLPAALTDGRLSAYIKLASRFRETRGIIVNTFVELETHAITLFSNDDRVPPVYPVGPVIDLDDGQEHSNLDQAQRDKIIKWLDDQPQKSVVFLCFGSMGSFGAEQVKEIAVGLEQSGQRFLWSLRMPSPKGIVPSDCSNLEEVLPDGFLERTNGKKGLICGWAPQVEILAHSATGGFLSHCGWNSILESLWHGVPIATWPMYAEQQLNAFRMVRELGMALEMRLDYKAGSADVVGADEIEKAVVGVMEKDSEVRKKVEEMGKMARKAVKDGGSSFASVGRFIEDVIGQN

Test system: pathway specific substrates
Experiment: Enzyme functionality of pathway enzyme homologs and fusion constructs in lysed E. coli cell extracts, product by HPLC
Assay type: biochemical, E. coli BL21
Details: lysed cell extract; for Enzyme activity in terms of product formation (in %): recombinant E. coli BL21 clone; for enzyme activity: protein expressed in E. coli, pathway specific substrate, HPLC
Protocol: As per one of the possible implementations of the present disclosure, two proteins—cinnamate-4-hydroxylate (C4H) and 4-coumaroyl CoA-ligase (4CL) were expressed as one fusion protein. Also, other two proteins which were expressed as one fusion protein were hydroxycinnamoyl-CoA quinate hydroxycinnamoyltransferase (HCT) and p-coumaroyl quinate 3′-hydroxylase (HCTC3H). The fusion gene and the corresponding fusion protein was prepared using the following method. […] The enzyme fusion constructs were made for the selected genes (Table 5). Pathway genes and the fusion constructs were individually cloned in E. coli expression vector pET28+ under T7 promoter and transformed in E. coli BL21 cells. Recombinant bacterial cells were induced with IPTG and enzyme functionality was tested with pathway specific substrates (Table 5) using lysed E. coli cell extracts. HPLC analysis was carried out to quantify the product formation and in turn shortlisting of efficient enzymes for functional pathway assembly towards Etoposide in E. coli.
The E. coli transformants were grown overnight at 37° C. in 1 ml of M9 minimal media containing ampicillin (100 mg/1), in 96-well format. The next day, 150 μl of each culture was inoculated into 3 ml M9 minimal media containing ampicillin (100 mg/1), IPTG 0.1 mM in 24-well format, and incubated at 30° C. and 200 rpm for ˜20 hours. The following day, cells were spun down and pellets were resuspended in 100 μl of lysis buffer containing 10 mM Tris-HCl pH 8, 5 mM MgCl2, 1 mM CaCl2) and complete mini protease inhibitor EDTA-free (3 tablets/100 ml) (Hoffmann-La Roche, Basel, Switzerland) and frozen at −80° C. for at least 15 minutes to promote cell lysis. Pellets were thawed at room temperature and 50 μl of DNase mix (1 μl of 1.4 mg/ml DNase in H2O (˜80000 u/ml), 1.2 μl of MgCl2 500 mM and 47.8 μl of 4×PBS buffer solution) was added to each well. Plates were shaken at 500 rpm for 5 min at room temperature to allow degradation of genomic DNA. Plates were spun down at 4000 rpm for 30 min at 4° C. and six μl of the lysates were used in in vitro using appropriate substrates for enzymes as per Table 6. In each case, the resulting compounds were measured by HPLC. Results were analysed in comparison with the lysates expressing the corresponding controls (the empty plasmid). […]

| Molecule | enzyme activity | also measured |
| --- | --- | --- |
| B1 | – | Enzyme activity in terms of product formation (in %) (substrate tested: Deoxypodophyllotoxin): 93% |
| B2 | 97% | – |
| B3 | 89% | – |
| B4 | 98% | – |
| B5 | 97% | – |
| B6 | – | Enzyme activity in terms of product formation (in %) (substrate tested: Desmethylepipodophyllotoxin): 54% |

From patent US11898183B2, “Programmed microorganisms to attenuate a disease” (priority 2020, dated 2024)
